According to patent US20170233472A1 (MacroGenics, published 2017):
Where a chain is given by its changes, count along the chain named. In names and notes the source's numbering stands.

B1: DART-32 (bispecific antibody)
chain 1: QLVLTQSPSASASLGSSVKLTCTLSSGHKTDTIDWYQQQPGKAPRYLMKLEGSGSYNKGSGVPDRFSGSSSGADWYLTISSLQSEDEADYYCGTDYPGNYLFGGGTQLTVLGGGGSGGGGEVQLVESGGGLVQPGGSLRLSCAASGFTFSTYAMNWVRQAPGKGLEWVGRIRSKYNNYATYYADSVKGRFTISRDDSKNSLYLQMNSLKTEDTAVYYCVRHGNFGNSYVSWFAYWGQGTLVTVSSGGCGGGKVAALKEKVAALKEKVAALKEKVAALKE
chain 2: QAVVTQEPSLTVSPGGTVTLTCRSSTGAVTTSNYANWVQQKPGQAPRGLIGGTNKRAPWTPARFSGSLLGGKAALTITGAQAEDEADYYCALWYSNLWVFGGGTKLTVLGGGGSGGGGQEQLVESGGGLVQPGGSLRLSCAASGFTFSDYYMSWVRQAPGKGLEWVATIYPSSGKTYYADSVKGRLTISSDNAKDSLYLQMNSLRAEDTAVYYCTRDSYADDAALFDIWGQGTTVTVSSGGCGGGEVAALEKEVAALEKEVAALEKEVAALEK
notes: ROR1×CD3 two chain diabody
B2: DART-A (bispecific antibody, IgG1)
chain 1: QLVLTQSPSASASLGSSVKLTCTLSSGHKTDTIDWYQQQPGKAPRYLMKLEGSGSYNKGSGVPDRFGSGSSSGADRYLTISSLQSEDEADYYCGTDYPGNYLFGGGTQLTVLGGGGSGGGGEVQLVESGGGLVQPGGSLRLSCAASGFTFSTYAMNWVRQAPGKGLEWVGRIRSKYNNYATYYADSVKGRFTISRDDSKNSLYLQMNSLKTEDTAVYYCVRHGNFGNSYVSWFAYWGQGTLVTVSSASTKGEVAACEKEVAALEKEVAALEKEVAALEKGGGDKTHTCPPCPAPEAAGGPSVFLFPPKPKDTLMISRTPEVTCVVVDVSHEDPEVKFNWYVDGVEVHNAKTKPREEQYNSTYRVVSVLTVLHQDWLNGKEYKCKVSNKALPAPIEKTISKAKGQPREPQVYTLPPSREEMTKNQVSLWCLVKGFYPSDIAVEWESNGQPENNYKTTPPVLDSDGSFFLYSKLTVDKSRWQQGNVFSCSVMHEALHNHYTQKSLSLSPGK
chain 2: QAVVTQEPSLTVSPGGTVTLTCRSSTGAVTTSNYANWVQQKPGQAPRGLIGGTNKRAPWTPARFSGSLLGGKAALTITGAQAEDEADYYCALWYSNLWVFGGGTKLTVLGGGGSGGGGQEQLVESGGGLVQPGGSLRLSCAASGFTFSDYYMSWVRQAPGKGLEWVATIYPSSGKTYYADSVKGRFTISSDNAKNSLYLQMNSLRAEDTAVYYCARDSYADDAALFDIWGQGTTVTVSSASTKGKVAACKEKVAALKEKVAALKEKVAALKE
chain 3: not shown
notes: Three chain Fc Region-containing diabody (knob/hole IgG1 CH2-CH3 with L234A/L235A); C-terminal lysine of the Fc chains may be removed post-translationally; also called ROR1×CD3 bispecific three chain diabody with parental anti-ROR1-VL and anti-ROR1-VH
B3: DART-C (bispecific antibody)
chain 1: QLVLTQSPSASASLGSSVKLTCTLSSGHKTDTIDWYQQQPGKAPRYLMKLEGSGSYNKGSGVPDRFSGSSSGADWYLTISSLQSEDEADYYCGTDYPGNYLFGGGTQLTVLGGGGSGGGGEVQLVESGGGLVQPGGSLRLSCAASGFTFSTYAMNWVRQAPGKGLEWVGRIRSKYNNYATYYADSVKGRFTISRDDSKNSLYLQMNSLKTEDTAVYYCVRHGNFGNSYVSWFAYWGQGTLVTVSSASTKGEVAACEKEVAALEKEVAALEKEVAALEKGGGDKTHTCPPCPAPEAAGGPSVFLFPPKPKDTLMISRTPEVTCVVVDVSHEDPEVKFNWYVDGVEVHNAKTKPREEQYNSTYRVVSVLTVLHQDWLNGKEYKCKVSNKALPAPIEKTISKAKGQPREPQVYTLPPSREEMTKNQVSLWCLVKGFYPSDIAVEWESNGQPENNYKTTPPVLDSDGSFFLYSKLTVDKSRWQQGNVFSCSVMHEALHNHYTQKSLSLSPGK
chain 2: B2 chain 2 with F186L, N195D, A215T
chain 3: not shown
notes: Three chain Fc Region-containing ROR1×CD3 diabody

Assays:
[1] = target: T1, His-tagged soluble human ROR1 (shROR1-His) (human, UniProt Q01973 30-406); experiment: SPR (Biacore), diabody captured via anti-E/K-coil, shROR1-His as analyte
T1 construct: also called ROR1 protein; immobilized ROR1; not shown: His-Tag
T1 sequence (Q01973 30-406): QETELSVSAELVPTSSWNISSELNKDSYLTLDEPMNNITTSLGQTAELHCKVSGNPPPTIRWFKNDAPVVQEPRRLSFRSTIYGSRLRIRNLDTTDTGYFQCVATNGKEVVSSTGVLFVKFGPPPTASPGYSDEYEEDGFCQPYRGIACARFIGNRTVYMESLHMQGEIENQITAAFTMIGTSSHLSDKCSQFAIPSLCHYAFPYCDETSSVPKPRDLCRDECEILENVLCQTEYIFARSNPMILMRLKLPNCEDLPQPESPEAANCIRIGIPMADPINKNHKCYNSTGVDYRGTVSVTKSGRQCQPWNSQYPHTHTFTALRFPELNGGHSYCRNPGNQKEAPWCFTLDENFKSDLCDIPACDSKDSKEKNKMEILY
Protocol: The binding kinetics of DART-1 to DART-6, DART-10 to DART-17, DART-20 to DART-33 was investigated using Biacore analysis in which ROR1 protein was passed over immobilized diabodies. Briefly, each diabody construct was captured on immobilized anti-E/K-coil surface and was incubated with shROR1-His at 25 and 100 nM, and the kinetics of binding were determined via Biacore analysis.

[2] = target: T1, His-tagged soluble human ROR1 …; experiment: SPR (Biacore)
[3] = target: human ROR1 expressed on the surface of cancer cells (human, UniProt Q01973 30-937); experiment: cell-based or functional assay
human ROR1 expressed on the surface of cancer cells, sequence (Q01973 30-937): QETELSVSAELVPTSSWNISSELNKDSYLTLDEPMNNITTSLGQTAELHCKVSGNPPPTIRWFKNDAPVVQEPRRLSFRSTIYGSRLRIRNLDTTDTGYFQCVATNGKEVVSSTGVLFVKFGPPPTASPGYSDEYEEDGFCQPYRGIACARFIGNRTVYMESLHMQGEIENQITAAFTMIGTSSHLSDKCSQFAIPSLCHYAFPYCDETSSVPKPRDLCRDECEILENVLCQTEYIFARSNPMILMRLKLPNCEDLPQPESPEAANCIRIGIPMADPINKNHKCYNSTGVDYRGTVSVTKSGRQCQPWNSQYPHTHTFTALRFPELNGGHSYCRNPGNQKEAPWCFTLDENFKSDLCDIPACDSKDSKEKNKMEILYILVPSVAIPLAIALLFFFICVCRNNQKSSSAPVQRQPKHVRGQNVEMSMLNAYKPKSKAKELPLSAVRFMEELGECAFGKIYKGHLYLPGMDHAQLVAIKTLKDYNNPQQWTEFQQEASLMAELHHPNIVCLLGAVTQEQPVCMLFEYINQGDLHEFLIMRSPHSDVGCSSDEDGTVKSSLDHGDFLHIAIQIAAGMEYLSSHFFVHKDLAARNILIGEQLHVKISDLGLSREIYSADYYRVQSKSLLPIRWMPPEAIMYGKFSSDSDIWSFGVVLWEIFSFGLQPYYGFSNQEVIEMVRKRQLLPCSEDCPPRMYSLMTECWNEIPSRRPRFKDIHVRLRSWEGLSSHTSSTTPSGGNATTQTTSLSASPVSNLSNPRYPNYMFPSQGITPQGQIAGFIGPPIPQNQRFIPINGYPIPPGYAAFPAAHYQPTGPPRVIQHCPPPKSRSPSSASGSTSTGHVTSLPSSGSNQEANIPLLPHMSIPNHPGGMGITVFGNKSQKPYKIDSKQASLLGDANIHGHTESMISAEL

[4] = target: T1, His-tagged soluble human ROR1 …; experiment: sandwich ELISA: plate coated with shROR1-His, serial dilutions of diabody, bound diabody detected with biotinylated CD3 and streptavidin-HRP; y axis 'Mean Value'
Protocol: (§1) The ability of the bispecific ROR1×CD3 two and three chain diabodies DART-1 and DART-A to bind both ROR1 and CD3 was examined by a sandwich ELISA. Briefly, microtiter plates were coated with shROR1-His, the plates were washed and incubated with three-fold serial dilutions of DART-1 or DART-A. The amount of diabody binding to the immobilized ROR1 was assessed using a biotinylated CD3 detected with Streptavidin-HRP. All samples were analyzed on a plate reader and binding curves generated. […] The cells were washed twice incubated with biotin-conjugated mouse anti-EK-coil antibody that recognizes the E-coil/K-coil (EK) heterodimerization region (100 μL of 1 μg/mL mixed with 1:500 diluted streptavidin-phycoerythrin) for 45 min. The cells were then washed and resuspended with FACS buffer, and analyzed with a BD FCS Canto II flow cytometer using FlowJo v10 software.

[5] = target: T1, His-tagged soluble human ROR1 …; experiment: sandwich ELISA: plate coated with shROR1-His, serial dilutions of diabody, bound diabody detected with biotinylated CD3 and streptavidin-HRP; abs @450nm
Protocol: as §1

[6] = target: T1, His-tagged soluble human ROR1 …; experiment: SPR (Biacore), shROR1-His captured on anti-PentaHis surface, diabody 6.25-100 nM as analyte
Protocol: The binding affinity of DART-1, DART-A, DART-B, and DART-C was investigated using Biacore analysis in which each diabody construct was passed over immobilized ROR1. Briefly, shROR1-His was captured on immobilized anti-PentaHis surface and was incubated with DART-1, DART-A, DART-B or DART-C at 6.25-100 nM, and the kinetics of binding was determined via Biacore analysis.

| Binder | Kd [1] [nM] | fold enhancement of binding relative to DART-1 [2] [fold] | EC50 nM, redirected cell killing of Calu-3 cells by pan T-cells (LDH release) [3] [nM] | EC50 nM, redirected cell killing of JIMT-1 cells by pan T-cells (LDH release) [3] [nM] | EC50 nM, redirected cell killing of NCI-H1975 cells by pan T-cells (LDH release) [3] [nM] | EC50 (read off the curve) [4] [nM] | EC50 (read off the curve) [5] [nM] | Kd [6] [nM] | fold enhancement of binding relative to DART-A [2] [fold] |
| --- | --- | --- | --- | --- | --- | --- | --- | --- | --- |
| B1 | 1.1 | > 2 | – | – | – | – | – | – | – |
| B2 | – | – | 0.196 | 0.161 | 0.266 | ~1 | ~2 | 0.69 | – |
| B3 | – | – | – | – | – | ~0.8 | – | 0.25 | > 2 |
